Data taken from patent US20220306695A1, “COMPSTATIN ANALOGUES AND THEIR MEDICAL USES” (priority 2019, published 2022).
Each block holds one binder with its values, some of them ahead of it. Positions of bridges follow the written chain, without caps; N, C: chain ends. Non-standard residues stand in square brackets, D forms with d. β3hI = CC[C@H](C)[C@H](N)CC(=O)O; Nle = CCCC[C@H](N)C(=O)O; Nva = CCC[C@H](N)C(=O)O; Sar = CNCC(=O)O

Key:
Human C3 [1] = target: T1, Human C3 (human, UniProt P01024 23-1663); test: cell-based or functional assay
T1 sequence (P01024 23-1663 limits assumed): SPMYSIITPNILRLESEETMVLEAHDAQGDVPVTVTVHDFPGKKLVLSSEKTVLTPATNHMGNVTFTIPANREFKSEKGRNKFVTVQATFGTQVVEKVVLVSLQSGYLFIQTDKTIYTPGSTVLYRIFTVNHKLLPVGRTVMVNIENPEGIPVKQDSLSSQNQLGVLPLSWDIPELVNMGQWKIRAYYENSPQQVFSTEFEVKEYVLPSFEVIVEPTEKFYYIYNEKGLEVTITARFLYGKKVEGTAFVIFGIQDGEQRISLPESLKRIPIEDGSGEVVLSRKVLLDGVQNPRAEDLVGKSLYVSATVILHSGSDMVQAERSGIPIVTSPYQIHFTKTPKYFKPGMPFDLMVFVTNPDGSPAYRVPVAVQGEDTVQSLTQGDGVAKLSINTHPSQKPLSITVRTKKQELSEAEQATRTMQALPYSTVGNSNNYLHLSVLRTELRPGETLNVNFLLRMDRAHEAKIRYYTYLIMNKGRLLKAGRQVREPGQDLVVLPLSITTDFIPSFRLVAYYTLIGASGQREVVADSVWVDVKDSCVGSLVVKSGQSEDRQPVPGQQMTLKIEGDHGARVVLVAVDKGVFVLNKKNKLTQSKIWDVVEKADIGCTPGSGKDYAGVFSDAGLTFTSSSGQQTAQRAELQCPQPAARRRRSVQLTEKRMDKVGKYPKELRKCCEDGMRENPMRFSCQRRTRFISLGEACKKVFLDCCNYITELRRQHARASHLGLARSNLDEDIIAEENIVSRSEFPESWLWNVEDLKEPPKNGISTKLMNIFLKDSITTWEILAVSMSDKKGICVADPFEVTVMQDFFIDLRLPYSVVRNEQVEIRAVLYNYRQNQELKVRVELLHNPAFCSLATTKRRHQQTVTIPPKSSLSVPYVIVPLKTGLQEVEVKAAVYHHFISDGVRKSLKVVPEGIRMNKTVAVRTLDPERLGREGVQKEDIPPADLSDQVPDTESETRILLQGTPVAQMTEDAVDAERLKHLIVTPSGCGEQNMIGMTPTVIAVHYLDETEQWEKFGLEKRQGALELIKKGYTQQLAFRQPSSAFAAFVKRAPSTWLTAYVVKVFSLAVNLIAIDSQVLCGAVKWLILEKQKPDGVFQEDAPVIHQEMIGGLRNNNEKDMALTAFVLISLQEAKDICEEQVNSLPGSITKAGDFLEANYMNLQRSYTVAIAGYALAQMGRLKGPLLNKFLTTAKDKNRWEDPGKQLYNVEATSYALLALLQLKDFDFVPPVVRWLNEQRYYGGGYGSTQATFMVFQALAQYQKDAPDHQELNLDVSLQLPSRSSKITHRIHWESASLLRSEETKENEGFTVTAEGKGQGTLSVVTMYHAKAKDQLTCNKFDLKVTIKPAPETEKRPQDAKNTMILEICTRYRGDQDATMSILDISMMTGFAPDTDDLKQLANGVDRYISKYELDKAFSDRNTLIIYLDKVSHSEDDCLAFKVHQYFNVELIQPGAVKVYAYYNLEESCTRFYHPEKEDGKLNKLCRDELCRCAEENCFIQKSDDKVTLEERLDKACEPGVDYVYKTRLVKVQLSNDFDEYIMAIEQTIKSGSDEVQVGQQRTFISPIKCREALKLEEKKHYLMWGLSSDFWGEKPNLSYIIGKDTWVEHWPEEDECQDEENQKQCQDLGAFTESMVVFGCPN

Human C3 [2] = target: T1, Human C3; test: cell-based or functional assay; remark: listed apart in the source
Human C3 [3] = target: T1, Human C3; test: cell-based or functional assay; remark: listed apart in the source
Human C3 [4] = target: T1, Human C3; test: SPR, C3 immobilised
Outline: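 Peptide series (5-8 concentrations, 60-120 s, up to 10 min dissociation, Tris pH 7.4 running buffer) flowed over ~3000 RU amine-coupled human C3; MgCl₂ regeneration; at least two independent runs.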

B1: Ac-IC(1)XWQDWGEHRC(1)T-NH2 with Norvaline at position 3 (peptide)
peptide: Ac-IC[Nva]WQDWGEHRCT-NH2
modifications: disulfide 2-12
SMILES: CCC[C@@H]1NC(=O)[C@@H](NC(=O)[C@@H](NC(C)=O)[C@@H](C)CC)CSSC[C@@H](C(=O)N[C@H](C(N)=O)[C@@H](C)O)NC(=O)[C@H](CCCNC(=N)N)NC(=O)[C@H](Cc2c[nH]cn2)NC(=O)[C@H](CCC(=O)O)NC(=O)CNC(=O)[C@H](Cc2c[nH]c3ccccc23)NC(=O)[C@H](CC(=O)O)NC(=O)[C@H](CCC(N)=O)NC(=O)[C@H](Cc2c[nH]c3ccccc23)NC1=O
IC50, CP hemolysis (Human C3 [1]): > 1000 nM

B2: Compound F (peptide)
peptide: Ac-ICVWQDWGEHSCT-NH2
modifications: disulfide 2-12
SMILES: CC[C@H](C)[C@H](NC(C)=O)C(=O)N[C@H]1CSSC[C@@H](C(=O)N[C@H](C(N)=O)[C@@H](C)O)NC(=O)[C@H](CO)NC(=O)[C@H](Cc2c[nH]cn2)NC(=O)[C@H](CCC(=O)O)NC(=O)CNC(=O)[C@H](Cc2c[nH]c3ccccc23)NC(=O)[C@H](CC(=O)O)NC(=O)[C@H](CCC(N)=O)NC(=O)[C@H](Cc2c[nH]c3ccccc23)NC(=O)[C@H](C(C)C)NC1=O
CP hemolysis IC50 (Human C3 [2]): 540 nM

B3: Compound 24 (peptide)
peptide: Ac-ICIWQDWGEHRCTEGE-NH2
modifications: disulfide 2-12
SMILES: CC[C@H](C)[C@H](NC(C)=O)C(=O)N[C@H]1CSSC[C@@H](C(=O)N[C@H](C(=O)N[C@@H](CCC(=O)O)C(=O)NCC(=O)N[C@@H](CCC(=O)O)C(N)=O)[C@@H](C)O)NC(=O)[C@H](CCCNC(=N)N)NC(=O)[C@H](Cc2c[nH]cn2)NC(=O)[C@H](CCC(=O)O)NC(=O)CNC(=O)[C@H](Cc2c[nH]c3ccccc23)NC(=O)[C@H](CC(=O)O)NC(=O)[C@H](CCC(N)=O)NC(=O)[C@H](Cc2c[nH]c3ccccc23)NC(=O)[C@H]([C@@H](C)CC)NC1=O
notes: also called Comp No 24
CP hemolysis IC50 (Human C3 [2]): 90 nM | IC50[nM], inhibition of hemolysis (Human C3 [3]): < 100 nM

B4: Compound 19 (peptide)
peptide: Ac-ICIWQDWGAHSCT-NH2
modifications: disulfide 2-12
SMILES: CC[C@H](C)[C@H](NC(C)=O)C(=O)N[C@H]1CSSC[C@@H](C(=O)N[C@H](C(N)=O)[C@@H](C)O)NC(=O)[C@H](CO)NC(=O)[C@H](Cc2c[nH]cn2)NC(=O)[C@H](C)NC(=O)CNC(=O)[C@H](Cc2c[nH]c3ccccc23)NC(=O)[C@H](CC(=O)O)NC(=O)[C@H](CCC(N)=O)NC(=O)[C@H](Cc2c[nH]c3ccccc23)NC(=O)[C@H]([C@@H](C)CC)NC1=O
CP hemolysis IC50 (Human C3 [2]): 140 nM | IC50[nM], inhibition of hemolysis (Human C3 [3]): < 250 nM

B5: Compound 3 (peptide)
peptide: Ac-ESSAICIWQDWGEHRCT-NH2
modifications: disulfide 6-16
SMILES: CC[C@H](C)[C@H](NC(=O)[C@H](C)NC(=O)[C@H](CO)NC(=O)[C@H](CO)NC(=O)[C@H](CCC(=O)O)NC(C)=O)C(=O)N[C@H]1CSSC[C@@H](C(=O)N[C@H](C(N)=O)[C@@H](C)O)NC(=O)[C@H](CCCNC(=N)N)NC(=O)[C@H](Cc2c[nH]cn2)NC(=O)[C@H](CCC(=O)O)NC(=O)CNC(=O)[C@H](Cc2c[nH]c3ccccc23)NC(=O)[C@H](CC(=O)O)NC(=O)[C@H](CCC(N)=O)NC(=O)[C@H](Cc2c[nH]c3ccccc23)NC(=O)[C@H]([C@@H](C)CC)NC1=O
CP hemolysis IC50 (Human C3 [2]): 69 nM | IC50[nM], inhibition of hemolysis (Human C3 [3]): < 100 nM

B6: Compound 15 (peptide)
peptide: Ac-ICIWQDWGEHRCTGAES-NH2
modifications: disulfide 2-12
SMILES: CC[C@H](C)[C@H](NC(C)=O)C(=O)N[C@H]1CSSC[C@@H](C(=O)N[C@H](C(=O)NCC(=O)N[C@@H](C)C(=O)N[C@@H](CCC(=O)O)C(=O)N[C@@H](CO)C(N)=O)[C@@H](C)O)NC(=O)[C@H](CCCNC(=N)N)NC(=O)[C@H](Cc2c[nH]cn2)NC(=O)[C@H](CCC(=O)O)NC(=O)CNC(=O)[C@H](Cc2c[nH]c3ccccc23)NC(=O)[C@H](CC(=O)O)NC(=O)[C@H](CCC(N)=O)NC(=O)[C@H](Cc2c[nH]c3ccccc23)NC(=O)[C@H]([C@@H](C)CC)NC1=O
CP hemolysis IC50 (Human C3 [2]): 47 nM | IC50[nM], inhibition of hemolysis (Human C3 [3]): < 100 nM

B7: Compound 2 (peptide)
peptide: Ac-ICIWQDWGEHRCT-NH2
modifications: disulfide 2-12
SMILES: CC[C@H](C)[C@H](NC(C)=O)C(=O)N[C@H]1CSSC[C@@H](C(=O)N[C@H](C(N)=O)[C@@H](C)O)NC(=O)[C@H](CCCNC(=N)N)NC(=O)[C@H](Cc2c[nH]cn2)NC(=O)[C@H](CCC(=O)O)NC(=O)CNC(=O)[C@H](Cc2c[nH]c3ccccc23)NC(=O)[C@H](CC(=O)O)NC(=O)[C@H](CCC(N)=O)NC(=O)[C@H](Cc2c[nH]c3ccccc23)NC(=O)[C@H]([C@@H](C)CC)NC1=O
CP hemolysis IC50 (Human C3 [2]): 94 nM | IC50, CP hemolysis (Human C3 [1]): < 100 nM | IC50[nM], inhibition of hemolysis (Human C3 [3]): < 100 nM

Kd (Human C3 [4]): 37 nM
B8: Compound 20 (peptide)
peptide: Ac-ICIWQDWGEHSCT-NH2
modifications: disulfide 2-12
SMILES: CC[C@H](C)[C@H](NC(C)=O)C(=O)N[C@H]1CSSC[C@@H](C(=O)N[C@H](C(N)=O)[C@@H](C)O)NC(=O)[C@H](CO)NC(=O)[C@H](Cc2c[nH]cn2)NC(=O)[C@H](CCC(=O)O)NC(=O)CNC(=O)[C@H](Cc2c[nH]c3ccccc23)NC(=O)[C@H](CC(=O)O)NC(=O)[C@H](CCC(N)=O)NC(=O)[C@H](Cc2c[nH]c3ccccc23)NC(=O)[C@H]([C@@H](C)CC)NC1=O
CP hemolysis IC50 (Human C3 [2]): 59 nM | IC50[nM], inhibition of hemolysis (Human C3 [3]): < 100 nM

B9: Compound 21 (peptide)
peptide: Ac-ICIWQDWGEHRCS-NH2
modifications: disulfide 2-12
SMILES: CC[C@H](C)[C@H](NC(C)=O)C(=O)N[C@H]1CSSC[C@@H](C(=O)N[C@@H](CO)C(N)=O)NC(=O)[C@H](CCCNC(=N)N)NC(=O)[C@H](Cc2c[nH]cn2)NC(=O)[C@H](CCC(=O)O)NC(=O)CNC(=O)[C@H](Cc2c[nH]c3ccccc23)NC(=O)[C@H](CC(=O)O)NC(=O)[C@H](CCC(N)=O)NC(=O)[C@H](Cc2c[nH]c3ccccc23)NC(=O)[C@H]([C@@H](C)CC)NC1=O
CP hemolysis IC50 (Human C3 [2]): 77 nM | IC50[nM], inhibition of hemolysis (Human C3 [3]): < 100 nM

Kd (Human C3 [4]): 44 nM
B10: Compound 28 (peptide)
peptide: Ac-EGSAICIWQDWGEHRC[Sar]E-NH2
modifications: disulfide 6-16
SMILES: CC[C@H](C)[C@H](NC(=O)[C@H](C)NC(=O)[C@H](CO)NC(=O)CNC(=O)[C@H](CCC(=O)O)NC(C)=O)C(=O)N[C@H]1CSSC[C@@H](C(=O)N(C)CC(=O)N[C@@H](CCC(=O)O)C(N)=O)NC(=O)[C@H](CCCNC(=N)N)NC(=O)[C@H](Cc2c[nH]cn2)NC(=O)[C@H](CCC(=O)O)NC(=O)CNC(=O)[C@H](Cc2c[nH]c3ccccc23)NC(=O)[C@H](CC(=O)O)NC(=O)[C@H](CCC(N)=O)NC(=O)[C@H](Cc2c[nH]c3ccccc23)NC(=O)[C@H]([C@@H](C)CC)NC1=O
CP hemolysis IC50 (Human C3 [2]): 88 nM | IC50[nM], inhibition of hemolysis (Human C3 [3]): < 100 nM

B11: Compound 6 (peptide)
peptide: Ac-ICIWQDWGSHRCT-NH2
modifications: disulfide 2-12
SMILES: CC[C@H](C)[C@H](NC(C)=O)C(=O)N[C@H]1CSSC[C@@H](C(=O)N[C@H](C(N)=O)[C@@H](C)O)NC(=O)[C@H](CCCNC(=N)N)NC(=O)[C@H](Cc2c[nH]cn2)NC(=O)[C@H](CO)NC(=O)CNC(=O)[C@H](Cc2c[nH]c3ccccc23)NC(=O)[C@H](CC(=O)O)NC(=O)[C@H](CCC(N)=O)NC(=O)[C@H](Cc2c[nH]c3ccccc23)NC(=O)[C@H]([C@@H](C)CC)NC1=O
CP hemolysis IC50 (Human C3 [2]): 140 nM | IC50[nM], inhibition of hemolysis (Human C3 [3]): < 250 nM

B12: Ac-IC(1)XWQDWGEHRC(1)T-NH2 with Beta-Homo-Isoleucine at position 3 (peptide)
peptide: Ac-IC[β3hI]WQDWGEHRCT-NH2
modifications: disulfide 2-12
IC50, CP hemolysis (Human C3 [1]): > 10000 nM

B13: Compound J (peptide)
peptide: Ac-ICVWQDWGEHRCTEGE-NH2
modifications: disulfide 2-12
SMILES: CC[C@H](C)[C@H](NC(C)=O)C(=O)N[C@H]1CSSC[C@@H](C(=O)N[C@H](C(=O)N[C@@H](CCC(=O)O)C(=O)NCC(=O)N[C@@H](CCC(=O)O)C(N)=O)[C@@H](C)O)NC(=O)[C@H](CCCNC(=N)N)NC(=O)[C@H](Cc2c[nH]cn2)NC(=O)[C@H](CCC(=O)O)NC(=O)CNC(=O)[C@H](Cc2c[nH]c3ccccc23)NC(=O)[C@H](CC(=O)O)NC(=O)[C@H](CCC(N)=O)NC(=O)[C@H](Cc2c[nH]c3ccccc23)NC(=O)[C@H](C(C)C)NC1=O
CP hemolysis IC50 (Human C3 [2]): 240 nM

B14: Ac-IC(1)XWQDWGEHRC(1)T-NH2 with Norleucine at position 3 (peptide)
peptide: Ac-IC[Nle]WQDWGEHRCT-NH2
modifications: disulfide 2-12
SMILES: CCCC[C@@H]1NC(=O)[C@@H](NC(=O)[C@@H](NC(C)=O)[C@@H](C)CC)CSSC[C@@H](C(=O)N[C@H](C(N)=O)[C@@H](C)O)NC(=O)[C@H](CCCNC(=N)N)NC(=O)[C@H](Cc2c[nH]cn2)NC(=O)[C@H](CCC(=O)O)NC(=O)CNC(=O)[C@H](Cc2c[nH]c3ccccc23)NC(=O)[C@H](CC(=O)O)NC(=O)[C@H](CCC(N)=O)NC(=O)[C@H](Cc2c[nH]c3ccccc23)NC1=O
IC50, CP hemolysis (Human C3 [1]): 480 nM
